Results: the DeepSol protein solubility set

Test: soluble on expression in E. coli; label from the status in PepcDB or PDB records

Sequence	soluble on expression in E. coli
MIYFQTKDDAFFTLASEQEADKPHREHLLDLTLGKGRKRKSSEVLRRGRLAACGLSFVVKNTLGELVGSVRLWHVQFNKGHNEIQHALLLGPLAVAAECSGIGIGSALMRHAIATAKKMGYGAIFLVGDCAFYQRFGFSSSLTKNLAMPGPYEKHRFQALELIPHYLTSCHGILTPSGELEDWNSFQHHKVA	not soluble
MLSETELRALKKLSTTTSRVVGDSTLALPSNVKLSKGEVEKIAVTKKEMFDELAQCNLPTIELITREHTFNGDVIRFAAWLFLMNGQKLMIANNVAVRMGMQYATNLAGNNVKITYVTSNNVVKLGHIAAGVLANPYSNKGSGLFITYEHNLISNQIETGKVCVLFITSLSTTASSTNSFAYSACSVPIEDWDFNMIKLTAETSCASLTAMTNLVNSLVPGERTRPVGLYVDIPGVTVTTSASSGSLPLTTIPAVTPLIFSAYTKQVEEVGVINTLYALSYLP	soluble
MSLFRFMKYKLFIDFEFNILDDNKNKPKEYNGAELISIGGILVDNEFNTIDNYYSLVKPKYNKILSNKCKNLTKLNQLDINNAPNLLYVMDDFYKWFCKFDDVTIYNWGDFDITGLLTSFRVYKYTGKCLELFNMMIDIQPFISQHITYNNRILSKQISLLNMKKIFSVEGDIKHNSLSDAVDLMNVCKCFFFNSPKNIDILEELYNKLPALKTEGHHHHHH	soluble
MNQWMELADRVLAGAEVTDEEALSILHCPDEDILLLMHGAFHIRKHFYGKKVKLNMIMNAKSGLCPENCGYCSQSAISKAPIESYRMVNKETLLEGAKRAHDLNIGTYCIVASGRGPSNREVDQVVDAVQEIKETYGLKICACLGLLKPEQAKRLKDAGVDRYNHNLNTSQRNHSNITTSHTYDDRVNTVEIAKESGLSPCSGAIIGMKETKQDVIDIAKSLKALDADSIPVNFLHAIDGTPLEGVNELNPLYCLKVLALFRFINPSKEIRISGGREVNLRTLQPLGLYAANSIFVGDYLTTAGQEETEDHKMLSDLGFEVESVEEMKASLSAKSLEHHHHHH	not soluble
MSGLEAKIAAIRDPDLQAELEAARGGFLFAPIVEHLLFRQRERDAARAQEGAQAEAREAMGRDRRRRDAVREVIESEPTGPENLQHLHSVLALCGLPYRDPGDARDFVREYGRNSLSLSAGRLKNPITGEMELQGLPYGPKARLVLLHLCTEAVRQRSPTIEVADSLSGFMKAMGFAVTGGERGTIGAFKEQLNRLAACSMQLGLWDGEGQASTLNVPPFRQLELWRRGDDGLVWQRTVSFHQDFYDSLIRHALPVDIRAARAFSGSARKLDLLFWTGYRLRALQRPLRLTWDNLHRQFGAENASLRSFRQAFKADLAGLLEVFPRLRIDLDEGGMLLHPADPGSLLVPPKLEHHHHHH	not soluble
MSLNALIEELKRLLKECATKKIVVIGECVRDVFVNTQRLSGPSDYQYTITKQLQRREFPGGAYPVARDLSNFVSKVHFVTCSTHEFPTNLERMDVIPISRERISKTRFFSGHNSNIFHYHCVFSEEITLSLTPLQELASVFSEADLVIVLDYGHGLLNSDVRKSISQNARFVALNCQANEDKYPFHQIWKYESTDLLLLNKVEAEINLLKTGVPVQELALRLHSKFKSTYTIVTDAEHGAVIQHDYRAYSSPAMSSCVVDAVGCSDIMLGFAALAAQNGKSAEEILYFASVAAGAKTMINVHERPLSREDLYEIALGVQNEGHHHHHH	not soluble
MDKIVIKGGNKLTGEVKVEGAKNAVLPILTASLLASDKPSKLVNVPALSDVETINNVLTTLNADVTYKKDENAVVVDATKTLNEEAPYEYVSKMRASILVMGPLLARLGHAIVALPGGCAIGSRPIEQHIKGFEALGAEIHLENGNIYANAKDGLKGTSIHLDFPSVGATQNIIMAASLAKGKTLIENAAKEPEIVDLANYINEMGGRITGAGTDTITINGVESLHGVEHAIIPDRIEAGTLLIAGAITRGDIFVRGAIKEHMASLVYKLEEMGVELDYQEDGIRVRAEGELQPVDIKTLPHPGFPTDMQSQMMALLLTANGHKVVTETVFENRFMHVAEFKRMNANINVEGRSAKLEGKSQLQGAQVKATDLRAAAALILAGLVADGKTSVTELTHLDRGYVDLHGKLKQLGADIERIND	not soluble
MCLDVLIHYPQEKADEMISHLCSLAQSRIILSFAPKTCALTLLKKIGSFFPGPSKTTRAYLHREADVIKILESNGFAIQRKEFTKTRFYFSRILEATRSLEHHHHHH	not soluble
